Source: US20030166056A1, “Transmembrane protein as a downstream target of neurotrophin and ephrin receptor tyrosine kinases, DNA encoding same and monoclonal antibodies thereto” (New York University, priority 2000, published 2003)
Entries after “also recorded” stand apart in the source; their conditions may differ.

Assays:
Type in all cases: cell-based
[1] = tested on: tyrosine phosphorylation of ARMS by TrkA in PC12 615 cells; test: Tyrosine phosphorylation of ARMS in PC12 615 cells (IP with 892 antiserum, pY99 immunoblot); conditions: for Induction of tyrosine phosphorylation of ARMS: 100 ng/ml NGF, 50 ng/ml EGF, 10 minutes and 2 hours; for Block of NGF-induced tyrosine phosphorylation of ARMS: 100 nM pretreatment
Description: Human embryonic kidney (HEK) 293 and 293T cells were maintained in Dulbecco's Modified Eagle's Medium (DMEM) containing 10% fetal bovine serum (FBS) supplemented with 100 U/ml penicillin, 100 μg/ml streptomycin, and 2 mM glutamine. Native PC12 cells, TrkA-overexpressing PC12 cells (615) (Hempstead et al., 1992), and TrkB-overexpressing PC12 cells were maintained in DMEM containing 10% FBS and 5% heat-inactivated horse serum with 30 U/ml penicillin, 30 μg/ml streptomycin, 2 mM glutamine, and 200 μg/ml G418.
For transient transfection experiments, HEK293 or HEK293T cells plated at 70-80% confluency in 10 cm dishes were subjected to calcium phosphate transfection with different combinations of the mammalian expression plasmids containing cDNAs for ARMS, rat TrkA, and rat HA-tagged p75 (Khursigara et al., 1999). PC12 615 cells or transiently transfected cells were harvested and lysed in 1 ml TNE buffer (10 mM Tris (pH 8.0), 150 mM NaCl, 1 mM EDTA, and 1% NP40) containing 0.12 mg/ml phenylmethylsulfonyl fluoride (PMSF), 2 μg/ml leupeptin, 1 μg/ml aprotinin, 10 mM sodium fluoride (NaF), and 1 mM sodium orthovanadate (Na3VO4) for 30 min on ice. Following centrifugation and removal of the insoluble fraction, protein concentration of the supernatant was determined by the Bio-Rad Protein Assay reagent (Bio-Rad Laboratories, Hercules, Calif.) with bovine serum albumin as the standard. Cell lysates of equivalent protein content were incubated for 4 hours to overnight with rotation at 4° C. with either anti-pan-Trk polyclonal antibody, C14 (1.5 μg) or anti-ARMS (892) antiserum (1:100). The immune complexes were immobilized on protein A-Sepharose beads (Sigma), washed six times with ice-cold TNE buffer, boiled in SDS-sample buffer, separated by sodium dodecyl sulfate-polyacrylamide gel electrophoresis (SDS-PAGE), and transferred onto PVDF membrane (Millipore, Bedford, Mass.). Immunoblotting was carried out by first blocking membranes in TBST buffer (20 mM Tris (pH 7.5), 500 mM NaCl, 0.1% Tween-20) containing 5% BSA for pY99 and 5% nonfat milk for others, and then incubating for 2 hours at room temperature or overnight at 4° C. in TBST buffer containing one of the following primary antibodies: anti-Trk 44 serum (1:2000); anti-phosphotyrosine pY99 antibody (0.1 μg/ml) (Santa Cruz Biotechnology, Santa Cruz, Calif.); anti-ARMS (892) antiserum (1:1000). Membranes were washed with TBST buffer and then incubated with horseradish peroxidase (HRP)-conjugated goat anti-rabbit (Roche Molecular Biochemicals, Indianapolis, Ind.) or goat anti-mouse secondary antibodies (Jackson ImmunoResearch Laboratories, West Grove, Pa.) at 1:10,000 and 1:7500 dilutions, respectively. Immunoreactive protein bands were detected by enhanced chemiluminescence using ECL reagents (Amersham Pharmacia Biotech, Piscataway, N.J.).
The high degree of correspondence in the expression of ARMS and neurotrophin receptors and the endogenous association with TrkA receptors led the present inventors to postulate that ARMS might function as a target for Trk receptor phosphorylation. To investigate this possibility, cell lysates from NGF-treated PC12 cells were prepared and the ARMS protein was immunoprecipitated with anti-ARMS antiserum, 892. Phosphorylation of ARMS protein was visualized by immunoblotting with an anti-phosphotyrosine antibody, pY99. Tyrosine phosphorylation of ARMS was detectable within a minute of NGF addition (FIG. 10A, top), closely following the time course of TrkA autophosphorylation (FIG. 10A, bottom). With continued NGF treatment, the phosphorylation of ARMS persisted for 25 hours (FIG. 10B).

[2] = biological target: T1, association between ARMS and the TrkA receptor (Homo sapiens, UniProt P04629); test: Coprecipitation of TrkA and ARMS in PC12 615 cells; conditions: NGF 100 ng/ml, IP anti-Trk C-14, blot anti-ARMS
T1 construct: expressed in transfected cells; host or cells: PC12 615 cells (TrkA-overexpressing PC12); ARMS is endogenous to these cells
Description: (§1) FIGS. 9A-9D show coprecipitation of TrkA and ARMS (FIG. 9A) and colocalization of TrkA and ARMS (FIGS. 9B-9D). In FIG. 9A, PC12 615 cells were treated for 10 minutes and 25 hours with NGF (100 ng/ml). Lysates were prepared and subjected to immunoprecipitation with anti-Trk C-14 antibody, followed by immunoblot with anti-ARMS antibody. Normal rabbit IgG was used as a negative control. In FIGS. 9B-9D, immunofluorescence analysis of ARMS and TrkA receptor in sympathetic neurons is shown. SCG sympathetic neurons were grown in the presence of 150 ng/ml NGF, fixed and immunostained as described in the Methods section of Example 1. The ARMS protein and the TrkA receptor were subjected to double immunostaining using an anti-ARMS antiserum (FIG. 9B) and an anti-Trk B-3 (FIG. 9C) monoclonal antibody and analyzed by confocal microscopy. […]
(§2) For transient transfection experiments, HEK293 or HEK293T cells plated at 70-80% confluency in 10 cm dishes were subjected to calcium phosphate transfection with different combinations of the mammalian expression plasmids containing cDNAs for ARMS, rat TrkA, and rat HA-tagged p75 (Khursigara et al., 1999). […] Following centrifugation and removal of the insoluble fraction, protein concentration of the supernatant was determined by the Bio-Rad Protein Assay reagent (Bio-Rad Laboratories, Hercules, Calif.) with bovine serum albumin as the standard. […]

[3] = biological target: T2, association between ARMS and the TrkA receptor; test: Coprecipitation of TrkA and ARMS in PC12 615 cells; conditions: NGF 100 ng/ml
T2 construct: expressed in transfected cells; host or cells: PC12 615 cells (TrkA-overexpressing PC12); ARMS is endogenous to these cells
Description: as §1, §2

[4] = tested on: distribution of ARMS in hippocampal neurons and PC12 cells; test: Immunofluorescence analysis of ARMS distribution; conditions: confocal immunofluorescence with antibody 892
Description: FIGS. 16A and 16B show a PC12 Immunofluorescence analysis. PC12 cells with (FIG. 16A) or without (FIG. 16B) NGF treatment cultured in Lab-Tek chamber slides (Nalge Nunc International) coated with collagen and poly-L-lysine were fixed with paraformaldehyde and permeablized with cold methanol. Cells were blocked with PBS containing 10% FCS and incubated with purified antibody (3 μg/ml) against the C-terminus of ARMS protein, 892 (Example 1). Primary antibodies were visualized using fluorescence-conjugated secondary antibodies (FITC-conjugated goat anti-rabbit IgG; Jackson Laboratories).
FIGS. 17A-17F show immunolocalization of ARMS and VAMP-2, a synaptic vesicle marker, in hippocampal neurons. Primary cultures of hippocampal neurons were obtained from rats E17-19 and maintained with Neurobasal medium (Gibco) supplemented with B-27 and 0.4 mM glutamine in Lab-Tek chamber slides (Nalge Nunc International) coated with poly-L-lysine. […] Primary antibodies were detected using fluorescence-conjugated secondary antibodies (FITC-conjugated goat anti-rabbit IgG and rhodamine-conjugated goat anti-mouse IgG (Jackson Laboratories)). […]

T1 sequence (P04629 33-796): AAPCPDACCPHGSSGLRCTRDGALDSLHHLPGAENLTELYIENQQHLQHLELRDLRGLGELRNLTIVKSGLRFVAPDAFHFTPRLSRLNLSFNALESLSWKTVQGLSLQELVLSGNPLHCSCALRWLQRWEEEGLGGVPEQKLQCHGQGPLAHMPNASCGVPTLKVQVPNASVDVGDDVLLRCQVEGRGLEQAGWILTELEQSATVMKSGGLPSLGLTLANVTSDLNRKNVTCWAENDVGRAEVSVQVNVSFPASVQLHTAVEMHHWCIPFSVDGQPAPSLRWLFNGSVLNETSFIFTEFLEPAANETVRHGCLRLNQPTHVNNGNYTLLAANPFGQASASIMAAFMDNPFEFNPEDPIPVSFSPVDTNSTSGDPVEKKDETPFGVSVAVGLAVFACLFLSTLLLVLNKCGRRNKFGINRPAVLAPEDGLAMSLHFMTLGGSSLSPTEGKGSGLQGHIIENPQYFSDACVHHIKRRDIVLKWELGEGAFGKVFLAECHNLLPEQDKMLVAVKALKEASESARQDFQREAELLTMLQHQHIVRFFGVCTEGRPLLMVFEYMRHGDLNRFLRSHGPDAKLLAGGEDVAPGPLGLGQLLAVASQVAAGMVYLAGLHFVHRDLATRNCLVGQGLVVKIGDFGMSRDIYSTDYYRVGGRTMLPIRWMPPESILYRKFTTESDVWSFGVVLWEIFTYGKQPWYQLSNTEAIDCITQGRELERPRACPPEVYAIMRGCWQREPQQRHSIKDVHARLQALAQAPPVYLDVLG
T1 sequence (Q9EQG6 whole entry partner): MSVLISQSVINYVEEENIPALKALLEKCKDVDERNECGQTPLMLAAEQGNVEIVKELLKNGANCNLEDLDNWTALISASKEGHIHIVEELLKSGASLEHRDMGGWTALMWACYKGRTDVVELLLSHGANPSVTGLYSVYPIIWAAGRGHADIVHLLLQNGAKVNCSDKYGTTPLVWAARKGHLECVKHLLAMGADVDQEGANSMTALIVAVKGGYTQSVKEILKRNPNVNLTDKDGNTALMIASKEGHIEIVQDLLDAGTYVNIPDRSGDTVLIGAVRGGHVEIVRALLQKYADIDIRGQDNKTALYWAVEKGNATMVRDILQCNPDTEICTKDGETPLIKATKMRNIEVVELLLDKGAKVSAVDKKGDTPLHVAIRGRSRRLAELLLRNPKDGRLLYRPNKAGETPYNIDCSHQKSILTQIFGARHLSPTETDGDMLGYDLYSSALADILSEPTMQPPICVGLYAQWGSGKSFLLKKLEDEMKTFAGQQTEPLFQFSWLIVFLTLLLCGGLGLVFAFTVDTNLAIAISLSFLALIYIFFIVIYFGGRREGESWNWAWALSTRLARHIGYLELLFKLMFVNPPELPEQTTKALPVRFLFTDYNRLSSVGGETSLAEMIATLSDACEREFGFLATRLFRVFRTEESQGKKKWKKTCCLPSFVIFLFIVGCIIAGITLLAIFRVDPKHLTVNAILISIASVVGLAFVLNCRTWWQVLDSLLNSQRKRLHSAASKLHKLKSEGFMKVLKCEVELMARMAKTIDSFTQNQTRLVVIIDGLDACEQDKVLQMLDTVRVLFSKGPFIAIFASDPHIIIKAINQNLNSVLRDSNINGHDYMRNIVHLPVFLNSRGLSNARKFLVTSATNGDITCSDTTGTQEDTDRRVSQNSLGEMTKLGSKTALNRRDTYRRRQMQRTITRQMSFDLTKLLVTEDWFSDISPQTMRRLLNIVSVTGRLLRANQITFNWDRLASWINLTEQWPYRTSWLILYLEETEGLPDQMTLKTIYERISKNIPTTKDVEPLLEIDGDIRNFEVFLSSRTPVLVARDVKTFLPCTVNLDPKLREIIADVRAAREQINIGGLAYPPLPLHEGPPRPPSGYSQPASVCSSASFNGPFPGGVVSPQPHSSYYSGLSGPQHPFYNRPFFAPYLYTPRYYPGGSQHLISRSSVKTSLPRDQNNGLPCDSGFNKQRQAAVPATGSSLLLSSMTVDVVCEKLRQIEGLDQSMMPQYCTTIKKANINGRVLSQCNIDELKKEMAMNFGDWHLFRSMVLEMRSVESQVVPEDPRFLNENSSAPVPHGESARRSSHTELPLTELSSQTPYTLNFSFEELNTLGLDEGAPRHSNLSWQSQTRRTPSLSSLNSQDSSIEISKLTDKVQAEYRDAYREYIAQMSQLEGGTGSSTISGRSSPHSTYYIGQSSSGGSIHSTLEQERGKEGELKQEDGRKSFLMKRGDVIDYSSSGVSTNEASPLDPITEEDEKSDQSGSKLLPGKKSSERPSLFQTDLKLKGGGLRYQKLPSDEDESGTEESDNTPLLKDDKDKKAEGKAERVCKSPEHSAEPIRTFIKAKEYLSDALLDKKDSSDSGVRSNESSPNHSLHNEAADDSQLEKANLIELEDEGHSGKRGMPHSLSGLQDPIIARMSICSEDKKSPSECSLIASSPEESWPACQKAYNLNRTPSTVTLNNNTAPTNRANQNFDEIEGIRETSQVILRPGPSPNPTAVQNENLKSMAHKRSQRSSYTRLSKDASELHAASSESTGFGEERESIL
T2 sequence (P04629 33-796): as the sequence (P04629 33-796) above
T2 sequence (Q9EQG6 whole entry partner): as the sequence (Q9EQG6 whole entry partner) above

Persistence of ARMS-TrkA association after treatment [2] [h]	Association between ARMS and TrkA receptor [3]	Molecule	Induction of tyrosine phosphorylation of ARMS ([1]; PC12 615 cells)	Block of NGF-induced tyrosine phosphorylation of ARMS ([1]; PC12 615 cells, NGF treatment)	Block of NGF-induced tyrosine phosphorylation of ARMS ([1]; PC12 615 cells, NGF treatment, listed as K-252a)	Time to detectable ARMS phosphorylation ([1]; PC12 615 cells, NGF treatment) [min]	Time of peak ARMS phosphorylation ([1]; PC12 cells, NGF treatment) [min]	Change in distribution of ARMS [4]
		insulin	not elicited					
		COC(=O)[C@@]1(O)C[C@H]2O[C@]1(C)n1c3ccccc3c3c4c(c5c6ccccc6n2c5c31)C(=O)NC4 [K252a, reference compound]		potently blocked	completely abolished			
25	NGF-dependent association	NGF: neurotrophin, ligand of TrkA; obtained from Harlan (protein, UniProt P01139 122-241, looked up) Beta-nerve growth factor: SSTHPVFHMGEFSVCDSVSVWVGDKTTATDIKGKEVTVLAEVNINNSVFRQYFFETKCRASNPVESGCRGIDSKHWNSYCTTTHTFVKALTTDEKQAAWRFIRIDTACVCVLSRKATRRG	considerably more robust; also recorded: specifically induced			≤ 1	≤ 10	dramatic change in distribution; also recorded: localized at neurite tips
